# Changes are numbered by the printed parent chain.
# T1: human γc on cells (KHYG-1, Ramos, HPB-ALL, Jurkat, PBMC) (human) (UniProt P31785)
# T1 sequence (looked up): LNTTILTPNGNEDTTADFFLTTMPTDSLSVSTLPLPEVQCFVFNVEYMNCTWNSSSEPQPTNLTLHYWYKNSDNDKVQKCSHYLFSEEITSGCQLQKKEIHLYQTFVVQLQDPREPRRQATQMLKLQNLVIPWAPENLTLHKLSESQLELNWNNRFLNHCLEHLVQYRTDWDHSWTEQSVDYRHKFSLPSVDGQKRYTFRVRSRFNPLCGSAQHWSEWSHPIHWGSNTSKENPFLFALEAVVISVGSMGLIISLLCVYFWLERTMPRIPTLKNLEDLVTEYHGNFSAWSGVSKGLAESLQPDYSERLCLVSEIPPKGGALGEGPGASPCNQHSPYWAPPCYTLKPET
# B1: SM-05G anti-γc ScFv (scFv, part only; not given: linker and E-tag, not shown: small tags and cut ends)
# scFv (part 1 of 2), part: EVQLQQSGPELVKPGASVKIFCKTSGYTFTEYTMHWVKQSHGESLEWIGGIDPNTGGVTYNQKFKGKATLTADSSSSTAYMELRNLTSEDSAVYYCARRRRYYGYALDYWGQGTSVTVSS
# scFv (part 2 of 2), part: DVVMTQTPLSLPVNLGDQASISCRSSQSLVHSNGNTYLDWYLQKPGQSPKLLIYKVSNRFSGVPDRFSGSGSGTYFTLNFSRVEAEDLGVYYCFQGSHVPFTFGSGTKLEIKR
# B2: SM-05A anti-γc ScFv (scFv, part only; not given: linker and E-tag, not shown: small tags and cut ends)
# scFv (part 1 of 2), part: EVQLQQSGPELVKPGASVKISCKTSGYTFTEYTMHWVKQSHGKSLEWIGGIDPYNGGATYNQRFKGKATLTVDKSSSTAYMEFRSLTSEDSAVYYCARRRLYYGNALDYWGQGTSVTVSS
# scFv (part 2 of 2), part: DVLMTQTPLSLPVSLGDQASISCRSSQSLVHSNGNTYLHWYLQRPGQSPKLLIYKVSSRFSGVPDRFSGSGSGTDFTLKISRVEAEDLGVYFCSQTTHVPFTFGSGTKLEIKR
# B3: SM-05B anti-γc ScFv (scFv, part only; not given: linker and E-tag, not shown: small tags and cut ends)
# scFv (part 1 of 2), part: B1 scFv (part 1 of 2), part with E1Q, V58A, S74K, N85S
# scFv (part 2 of 2), part: B2 scFv (part 2 of 2), part with L29I, H39E, R44K, S58N, T96S, F101W, S105G
# B4: SM-05F anti-γc ScFv (scFv, part only; not given: linker and E-tag, not shown: small tags and cut ends)
# scFv (part 1 of 2), part: B1 scFv (part 1 of 2), part with S74K, N85S
# scFv (part 2 of 2), part: B1 scFv (part 2 of 2), part with V3L, N14S, L29I, S32N, D39E, S61F, N79K, F80I, F101W, S105G
# B5: SM-05J anti-γc ScFv (scFv, part only; not given: linker and E-tag, not shown: small tags and cut ends)
# scFv (part 1 of 2), part: B2 scFv (part 1 of 2), part with A58I, F83L, N105Y
# scFv (part 2 of 2), part: B1 scFv (part 2 of 2), part with N14S, L29I, D39E, Y75D, N79K, F80I
# B6: SM-05C anti-γc ScFv (scFv, part only; not given: linker and E-tag, not shown: small tags and cut ends)
# scFv (part 1 of 2), part: B1 scFv (part 1 of 2), part with E1Q, V58A, S74K, N85S, L107M
# scFv (part 2 of 2), part: B1 scFv (part 2 of 2), part with N14S, D39H, Y75D, N79K, F80I, V90I, G96D
# B7: SM-05K anti-γc ScFv (scFv, part only; not given: linker and E-tag, not shown: small tags and cut ends)
# scFv (part 1 of 2), part: EVQLLESGPELVKPGASVKISCKTSGYSFTDYFMNWVKQSHGESLEWIGGIDPNTGGVTYNQKFKGKATLTVDKSASTAYMELRSLTSEDSAVYYCARRRRYYGYAMDYWGQGTSVTVSS
# scFv (part 2 of 2), part: B2 scFv (part 2 of 2), part with L29I, H39E, R44K, S58N, T96S, F101W, S105G
# B8: SM-05H anti-γc ScFv (scFv, part only; not given: linker and E-tag, not shown: small tags and cut ends)
# scFv (part 1 of 2), part: B1 scFv (part 1 of 2), part with E1Q, V18M, K19N, V58A, K67Q, S74K, N85S
# scFv (part 2 of 2), part: B2 scFv (part 2 of 2), part with S28N, L29I, V30I, H39E, R44K, S58N, S68T, T96S, S105G
# B9: SM-05I anti-γc ScFv (scFv, part only; not given: linker and E-tag, not shown: small tags and cut ends)
# scFv (part 1 of 2), part: QVQLQQSGAELAKPGASVKLSCKASGYTFTEYTMHWVKQSHGESLDWIGGIDPNTGGATYNQRFKGKATMTVDKSSSTAYMEFRSLTSEDSAVYYCARRRRYYGYALDNWGQGTSVTVSS
# scFv (part 2 of 2), part: B2 scFv (part 2 of 2), part with L29I, H39E, R44K, S58N, F92Y, S94F, T96D, T97S
# B10: SM-05E anti-γc ScFv (scFv, part only; not given: linker and E-tag, not shown: small tags and cut ends)
# scFv (part 1 of 2), part: B1 scFv (part 1 of 2), part with Q3H, S74K, N85S
# scFv (part 2 of 2), part: B2 scFv (part 2 of 2), part with L29I, H39E, R44K, S58N, R82S, T96S, T102M
# B11: SM-05K: anti-γc antibody; CDR SEQ ID NO: 164, 166, 168, 172, 174, 176 (antibody, V domains shown)
# VH: B7 scFv (part 1 of 2), part
# VL: DVLMTQTPLSLPVSLGDQASISCRSSQSIVHSNGNTYLEWYLQKPGQSPKLLIYKVSNRFSGVPDRFSGSGSGTDFTLKISRVEAEDLGVYFCSQSTHVPWTFGGGTKLEIK
# modifications: left off: another chain or arm of the molecule; small tags and cut ends
# Target: T1, human γc on cells (KHYG-1, Ramos, HPB-ALL, Jurkat, PBMC) (human)
# Test: cell-based or functional assay
# Settings: not given
Molecule,"p-STAT5 inhibition (%), IL-7 induced, HPB-ALL T cells, flow cytometry [%]","p-STAT3 inhibition (%), IL-9 induced, Jurkat T cells, flow cytometry [%]","p-STAT3 inhibition (%), IL-21 induced, Ramos B cells, flow cytometry [%]","p-STAT5 inhibition (%), IL-15 induced, KHYG-1 NK cells, flow cytometry [%]","p-STAT6 inhibition (%), IL-4 induced, Ramos B cells, flow cytometry [%]"
B1,0,,,,
B2,100,80.6,47.3,48.6,86.1
B3,94.5,82.6,13.8,47.1,77
B4,99.4,92.4,79,43.7,46
B5,98.1,100,75.8,42.7,82.2
B6,100,97.9,29.1,46,46
B7,86,,90.8,43,
B8,100,93.1,70.6,51.7,63.4
B9,,100,91,38.9,74.1
B10,98.3,74.3,60.6,47.8,85.6

# Test system: IL-15 induced STAT5 phosphorylation
# Test: Inhibition of IL-15 induced STAT phosphorylation in KHYG-1 NK cell line, flow cytometry
# Type: cell-based, human
# Settings: ScFv 10 μg/ml
# From the text: (§1) Cells were harvested and stained with FITC conjugated anti-pSTAT6, PE conjugated anti-pSTAT3 or APC con jugated anti-pSTAT5 antibodies for flow cytometry analyses. In some embodiments, the purified ScFv could block the IL-4 induced STAT6 phosphorylation in cell culture (e.g., Ramos). In some embodiments, the purified ScFv could block the IL-7 induced STAT5 phosphorylation in cell culture (e.g., HPB-ALL). In some embodiments, the purified ScFv could block the IL-9 induced STAT3 phosphorylation in cell culture (e.g., Jurkat). In some embodiments, the purified ScFv could block the IL-15 induced STAT5 phosphorylation in cell culture (e.g., KHYG-1). In some embodiments, the purified ScFv could block the IL-21 induced STAT3 phosphorylation in cell culture (e.g., Ramos).
# (§2) Flow cytometry was employed to measure the percentage of p-STAT expressing cells after cytokine induction and anti-γc ScFv treatment. KHYG-1 (Creative Bioarray, Shirley, NY 11967, USA) was starved in IL-2 free RPMI1640 (ATCC modification, ThermoFisher Scientific, Waltham, MA, USA) with 10% FBS (ThermoFisher Scientific) for 2 days. Ramos, HPB-ALL and Jurkat cell lines were used directly without starvation. Cells were replenished with fresh RPMI1640 medium and pretreated with anti-γc ScFv (10 μg/mL) for an hour. After treatment with TL-4 (10 ng/ml, Sino Biological), IL-7 (50 ng/ml, Sino Biological), IL-9 (50 ng/ml, Sino Biological), IL-15 (10 ng/ml, Sino Biological) or IL-21 (10 ng/ml, Sino Biological) for 15 min, cells were fixed in 4% paraformaldehyde (PFA, Sigma, St. Louis, Missouri, USA) for 10 min, permeabilized in 0.1% Triton X-100 (Sigma) for 10 min and then stained with FITC conjugated anti-pSTAT6, PE conjugated anti-pSTAT3 or APC con jugated anti-pSTAT5 (all diluted in 1:100, Biolegend, San Diego, California, USA) for 30 min at 37° C. Percentage of p-STAT expressing cells was measured by BD FACSLyric™ Clinical Flow Cytometry System (BD Biosciences, New Jersey, USA). Data were analyzed by Flowjo (version 10, BD).
# (§3) Different cell lines were used for testing. KHYG-1 refers to the NK cell line harvested from the peripheral blood of a person with aggressive NK cell leukemia. This cell line could respond to IL-2 and IL-15 stimulation in-vitro [Yamasaki et al., Leuk Res., […]; 28 (10): 1023-31]. Ramos is a human Burkitts Lymphoma cell line (CRL-1596™) and could be used as a model for IL-4 and IL-21 studies [Hui et al., Front Immunol., 2022; 13: 919854]. Jurkat is a human T lymphoblast cell line (Clone E6-1, TIB-152™) and is widely used in the T cell studies of IL-9 function. HPB-ALL is a T cell leukemia model established from the peripheral blood of a child with ALL and thymoma at diagnosis in 1973 and could be used for IL-7 functional studies.
row,Molecule,p-STAT5 inhibition (%)
1,B11,42.97

# Test system: IL-21 induced STAT3 phosphorylation
# Test: Inhibition of IL-21 induced STAT phosphorylation in Ramos B cell line, flow cytometry
# Type: cell-based, human
# Settings: ScFv 10 μg/ml
# From the text: as §1, §2, §3
row,Molecule,p-STAT3 inhibition (%)
1,B11,90.77

# Test system: IL-7 induced STAT5 phosphorylation
# Test: Inhibition of IL-7 induced STAT5 phosphorylation in HPB-ALL T cell line, flow cytometry
# Type: cell-based, human
# Settings: ScFv 10 μg/ml
# From the text: as §1, §2, §3
row,Molecule,p-STAT5 inhibition (%)
1,B11,86.02

# From US20260209365A1, “ANTI-COMMON GAMMA CHAIN PROTEINS AND COMPOSITIONS OF MATTER” (SINOMAB BIOSCIENCE LIMITED, priority 2023, published 2026)
